Measurements taken from paper PMC9949351, “Chromatin localization of nucleophosmin organizes ribosome biogenesis” (Molecular cell, 2022).

B1: Fkbp39 (natural protein, S. pombe, UniProt O74191 1-361, looked up)
chain: MSLPIAVYSLSVKGKDVPAVEESTDASIHLTMASIDAGEKSNKPTTLLVKVRPRIPVEDEDDEELDEQMQELLEESQREFVLCTLKPGSLYQQPLNLTITPGDEVFFSASGDATIHLSGNFLVDEEDEEEEESDEDYDLSPTEEDLVETVSGDEESEEESESEDNSASEEDELDSAPAKKAQVKKKRTKDESEQEEAASPKKNNTKKQKVEGTPVKEKKVAFAEKLEQGPTGPAAKKEKQQASSNAPSSPKTRTLKGGVVVTDVKTGSGASATNGKKVEMRYIGKLENGKVFDKNTKGKPFAFILGRGEVIRGWDVGVAGMQEGGERKITIPAPMAYGNQSIPGIPKNSTLVFEVKLVRVH
notes: Fkbp39, S. pombe, SPBC1347.02; cloned into a pETDuet vector behind 6xHis-SUMO and an HRV-3C site; also called nucleophosmin-like protein Fkbp39; SPBC1347.02; source: E. coli Rosetta, purified (Ni Sepharose, tag removed, SP ion exchange, at times SEC); not shown: 6xHis, N-terminal, cleaved; SUMO, N-terminal, cleaved
B2: 6xHis-SUMO-Fkbp39 (natural protein, S. pombe, UniProt O74191 1-361, looked up)
chain: B1 chain
notes: Fkbp39, S. pombe, SPBC1347.02; pETDuet construct with 6xHis-SUMO and an HRV-3C site, tag not removed; source: E. coli Rosetta (Fkbp39 constructs), purified; used as 6xHis-SUMO-Fkbp39; not shown: 6xHis, N-terminal, kept; SUMO, N-terminal, kept
B3: Fkbp41 (natural protein, S. pombe, UniProt Q10175 1-362, looked up)
chain: MSKEETLYSVKVDQERVPLFDEDFYKGFRSELSVRFTMAALDPRAKSNDAVTVNVITRLEHPEEDGEESDEELFQEEKFTLCTLKKGSVYQQPIDIIFSPGEEVFFERVGGDIPVYLSGTCIITNIPEEEDSSDLENDFLYGADEFSSDEEEMDDISVTSSEEEEEENGARIEELNSDEEDAEQAEEEILEKPVPKDEVAEKHSKDKLKKEEKEKKTAVDVSDSVNGKKRKTEPAGEGEQTEKKSKSTKTYPKQVLEGNVTVQDKVKGDGPAAKRKKRVSMRYIGRLTNGKVFDKNITGKPFTFNLGLEEVIKGWDVGIVGMQVGGERTIHIPAAMAYGSKRLPGIPANSDLVFDVKLLAVN
notes: Fkbp41, S. pombe, SPAC27F1.06c; cloned into a pETDuet vector behind 6xHis-SUMO and an HRV-3C site; also called nucleophosmin-like protein Fkbp41; SPAC27F1.06c; source: E. coli Rosetta (DE3), purified (Ni Sepharose, tag removed, Q ion exchange, at times SEC); not shown: 6xHis, N-terminal, cleaved; SUMO, N-terminal, cleaved

What was measured:
[1] = biological target: the molecule itself; assay: mass photometry + SEC; purified Fkbp39 and Fkbp41, oligomeric state; SEC on Superdex 200 Increase 10/300 GL
Fkbp41 = biological target: B3; assay: pull-down; 'in vitro co-immunoprecipitation': 12 μg each of 6xHis-SUMO-Fkbp39 and Fkbp41, 45 min at 4 °C in 30 mM HEPES-Na pH 7.5-8, 150 mM NaCl, 20 mM imidazole; Ni Sepharose resin, imidazole elution, SDS-PAGE; conditions: both partners purified

Binder	stoichiometry N [1]	binding result (Fkbp41)
B1	5	–
B2	–	binds
B3	2	–
